The results in this text go back to patent US7494767.

For assay [1], the target named is GAL4 DNA-binding domain-p1-p6 fusion protein (yeast; human immunodeficiency virus type 1 (HIV-1)) (UniProt P04386). The assay is described as follows: yeast 2-hybrid, β-galactosidase; Tsg101 variant with p1-p6.
For assay [2], the target named is GAL4 activation domain-Tsg101 fusion protein (wild-type human Tsg101) (yeast; human) (UniProt Q99816). The assay is described as follows: yeast 2-hybrid, β-galactosidase; p1-p6 variant with Tsg101.
Sequence of GAL4 activation domain-Tsg101 fusion protein (wild-type human Tsg101) (yeast; human) (Q99816 whole entry, the tested form may be a part): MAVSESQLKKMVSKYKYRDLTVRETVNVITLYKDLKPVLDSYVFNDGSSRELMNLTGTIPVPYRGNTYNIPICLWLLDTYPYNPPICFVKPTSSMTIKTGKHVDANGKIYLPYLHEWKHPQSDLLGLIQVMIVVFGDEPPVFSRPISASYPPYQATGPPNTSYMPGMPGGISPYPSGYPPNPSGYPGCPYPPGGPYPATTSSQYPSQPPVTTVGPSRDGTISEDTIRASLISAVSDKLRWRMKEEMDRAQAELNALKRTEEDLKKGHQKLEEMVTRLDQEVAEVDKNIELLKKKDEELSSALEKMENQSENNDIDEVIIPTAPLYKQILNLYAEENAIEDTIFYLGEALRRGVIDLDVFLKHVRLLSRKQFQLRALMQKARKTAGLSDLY

“GAL4 activation domain-Tsg101 Y110W (from UniProt Q99816 1-390)” came in with a p6 interaction, % of wild-type (% of wild-type) in assay [1] of 31.
Consider “GAL4 activation domain-Tsg101 with Ala for Thr-Tyr-Asn (67-69) (from UniProt Q99816 1-390)”, for which the binding, % of the wild-type level (% of wild-type) in assay [1] came out at 5.
For the substance “GAL4 activation domain-Tsg101 Y113V (from UniProt Q99816 1-390)”, in assay [1], the binding, % of wild-type (% of wild-type) worked out at 33.
In assay [2], “GAL4 DNA-binding domain-p1-p6 with the first PTAPP motif deleted (from UniProt P04386 1-147; P03347 435-512)” showed a β-galactosidase activity, % of wild-type protein binding (% of wild-type) of 50.
“GAL4 DNA-binding domain-p1-p6 with the (LXX)4 repeat motif deleted (from UniProt P04386 1-147; P03347 435-512)” registered a β-galactosidase activity, % of the wild-type level (% of wild-type) in assay [2] of 55.
In assay [2], “GAL4 DNA-binding domain-p1-p6 with the first PTAPP motif deleted and Ala for Pro7 in the second motif (from UniProt P04386 1-147; P03347 435-512)” returned a β-galactosidase activity, % of wild-type (% of wild-type) of 25.
Take “GAL4 DNA-binding domain-p1-p6 with the second PTAPP motif deleted (from UniProt P04386 1-147; P03347 435-512)”: the β-galactosidase activity, % of wild-type protein binding (% of wild-type) in assay [2] was 25.
